Measurements published in article PMC5683654, “Interaction between the flagellar pocket collar and the hook complex via a novel microtubule-binding protein in Trypanosoma brucei” (PLoS Pathogens, 2017).

Columns and labels:
[1] = target: taxol-stabilised microtubules (polymerised tubulin); assay: co-sedimentation; microtubule binding assay; increasing concentrations of FPC4 fragment with 7.2 μM polymerised tubulin in PEMD, 1 h at 22°C, 16,100 g; pellets and supernatants on SDS-PAGE
[2] = target: BILBO1-Edge-Mut (K60A/K62A), bacterially expressed BILBO1-NTD’ (Trypanosoma brucei); assay: ITC; 25°C, 20 mM Tris-HCl pH 8.0, 50 mM NaCl; 50 μM BILBO1-NTD’ in the cell titrated with 600 μM FPC4-B1BD; one-site binding model
FPC4-B1BD (aa 357–440) = target: T1, FPC4-B1BD (aa 357–440) (Trypanosoma brucei, UniProt Q57YN8 357-440); assay: ITC
T1 chain: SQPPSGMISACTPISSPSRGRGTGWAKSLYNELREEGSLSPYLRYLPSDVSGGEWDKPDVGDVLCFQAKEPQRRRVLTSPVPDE

BILBO1-NTD’ (aa 1–120) [3] = target: T2, BILBO1-NTD’ (aa 1–120) (Trypanosoma brucei, UniProt Q382W6 1-120); assay: ITC; 25°C, 20 mM Tris-HCl pH 8.0, 50 mM NaCl; 50 μM BILBO1-NTD’ in the cell titrated with 600 μM FPC4-B1BD; one-site binding model; details: both partners purified
T2 construct: BILBO1 of Trypanosoma brucei, Tb927.11.12150, aa 1-120, cloned into pET-15b; also called TbBILBO1-NTD’; 6His-BILBO1-NTD’; source: E. coli, purified (Ni-HiTrap, tag removed with thrombin, Superdex-200); not shown: His6, N-terminal, cleaved
T2 sequence (looked up): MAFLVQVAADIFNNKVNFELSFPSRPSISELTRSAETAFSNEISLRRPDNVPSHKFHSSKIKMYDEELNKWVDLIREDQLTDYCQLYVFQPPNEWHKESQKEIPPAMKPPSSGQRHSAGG

BILBO1-NTD’ (aa 1–120) [4] = target: T2, BILBO1-NTD’ (aa 1–120); assay: SEC-MALS; static light scattering on Superdex 200 10/300 GL; purified proteins mixed at molar ratio ~1:2, total 2 mg/ml, 30 min at room temperature; details: both partners purified

**Q.** With FPC4-1-260-6His (domain or fragment) as the molecule, how does the saturating concentration [1] read?
**A.** Its saturating concentration is 5.6 µM.

**Q.** For “FPC4-B1BD (aa 357–440) (from UniProt Q57YN8 357-440) (domain or fragment)”, which Kd [2] is on record?
**A.** Its Kd is 18 µM.

B1: BILBO1-NTD’ (aa 1–120) (domain or fragment)
chain: MAFLVQVAADIFNNKVNFELSFPSRPSISELTRSAETAFSNEISLRRPDNVPSHKFHSSKIKMYDEELNKWVDLIREDQLTDYCQLYVFQPPNEWHKESQKEIPPAMKPPSSGQRHSAGG
**Q.** With B1 as the molecule, how does the Kd (FPC4-B1BD (aa 357–440)) read?
**A.** Its Kd is 5.4 µM.

B2: FPC4-B1BD (aa 357–440) (domain or fragment, Trypanosoma brucei, UniProt Q57YN8 357-440, looked up)
chain: SQPPSGMISACTPISSPSRGRGTGWAKSLYNELREEGSLSPYLRYLPSDVSGGEWDKPDVGDVLCFQAKEPQRRRVLTSPVPDE
notes: FPC4 of Trypanosoma brucei, Tb927.8.6370, aa 357-440, cloned into the custom vector MalpET; also called TbFPC4-B1BD; MBP-tagged FPC4-B1BD; source: E. coli, purified (Ni-HiTrap, tag removed with TEV, Superdex-200); not shown: MBP, N-terminal, cleaved; His10, N-terminal, cleaved
**Q.** For B2, which Kd (BILBO1-NTD’ (aa 1–120) [3]) is on record?
**A.** The Kd was roughly 5 µM.

**Q.** And the “stoichiometry N” value (BILBO1-NTD’ (aa 1–120) [4])?
**A.** Its value is 1.
